Assay results from patent US20250282869A1 (Amgen, published 2025).

Key:
[1] = molecular target: T1, human delta-like ligand 3 (DLL3) (human, UniProt Q9NYJ7 27-618); test: cell-based or functional assay
T1 sequence (looked up): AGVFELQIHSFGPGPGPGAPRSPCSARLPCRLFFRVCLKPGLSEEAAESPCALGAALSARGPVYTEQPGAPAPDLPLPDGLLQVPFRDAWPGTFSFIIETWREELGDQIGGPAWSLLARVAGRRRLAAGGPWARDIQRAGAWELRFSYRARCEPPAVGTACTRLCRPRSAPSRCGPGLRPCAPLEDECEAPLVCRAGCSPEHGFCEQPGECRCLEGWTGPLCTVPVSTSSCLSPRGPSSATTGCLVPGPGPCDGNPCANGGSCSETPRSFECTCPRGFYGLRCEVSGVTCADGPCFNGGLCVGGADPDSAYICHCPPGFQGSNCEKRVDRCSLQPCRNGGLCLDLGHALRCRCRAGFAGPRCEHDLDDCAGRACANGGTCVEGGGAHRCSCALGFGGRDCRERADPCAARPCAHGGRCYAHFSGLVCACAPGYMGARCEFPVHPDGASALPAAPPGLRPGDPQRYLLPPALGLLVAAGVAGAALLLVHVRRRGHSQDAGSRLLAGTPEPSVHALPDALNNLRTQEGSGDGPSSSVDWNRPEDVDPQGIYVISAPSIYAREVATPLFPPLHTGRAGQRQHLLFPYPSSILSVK

[2] = molecular target: T2, cynomolgus monkey DLL3 (cynomolgus monkey, UniProt A0A2K5WSR1 27-584); test: cell-based or functional assay
T2 sequence: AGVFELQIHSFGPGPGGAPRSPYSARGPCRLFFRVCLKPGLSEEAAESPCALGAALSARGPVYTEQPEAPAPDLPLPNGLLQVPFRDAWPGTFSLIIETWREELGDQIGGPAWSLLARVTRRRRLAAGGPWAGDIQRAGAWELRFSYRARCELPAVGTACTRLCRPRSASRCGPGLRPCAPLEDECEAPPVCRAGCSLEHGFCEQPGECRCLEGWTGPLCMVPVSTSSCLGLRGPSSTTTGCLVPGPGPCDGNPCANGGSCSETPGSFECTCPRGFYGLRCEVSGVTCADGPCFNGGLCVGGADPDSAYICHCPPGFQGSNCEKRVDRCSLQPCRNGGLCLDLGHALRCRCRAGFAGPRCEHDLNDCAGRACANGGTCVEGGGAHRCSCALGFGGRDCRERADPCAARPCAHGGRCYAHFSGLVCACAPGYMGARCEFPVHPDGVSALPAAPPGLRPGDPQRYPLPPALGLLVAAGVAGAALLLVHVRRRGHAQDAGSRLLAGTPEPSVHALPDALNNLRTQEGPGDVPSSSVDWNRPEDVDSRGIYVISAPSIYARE

[3] = molecular target: T1, human delta-like ligand 3 (DLL3); test: flow cytometry, on-cell binding to CHO cells stably expressing human DLL3, anti-Fc detection
Procedure: (§1) In particular, on-cell binding affinity for DLL3 was evaluated using Chinese Hamster Ovary (CHO) cells engineered to stably express either human or cynomolgus monkey DLL3. The engineered CHO cells were incubated with DLL3 multichain TCE proteins comprising two different DLL3-binders (“DLL3_1” or “DLL3_2”) for 4 hours at 4° C. in buffer (phosphate buffered saline with 1% fetal bovine serum). After incubation, the cells were washed in buffer, and then bound DLL3 multichain proteins were detected by incubation with a fluorescently labeled antibody directed to the fragment crystallizable (Fc) region of the proteins. Bound proteins were analyzed by flow cytometry and the EC50 values were calculated from non-linear regression analysis using GraphPad Prism.

[4] = molecular target: T3, CD3ε (aa 1-27)-chicken albumin fusion protein, human (human; chicken, UniProt P07766 22-48); test: SPR, CD3ε (aa 1-27)-chicken albumin immobilized on CM5 chip, construct in solution
T3 construct: range 1-27; Immobilized on CM5 sensor chips; The order of the parts follows the printed name; also called Human CD3; CD3E fusion protein; not shown: chicken albumin
T3 sequence (P07766 22-48 limits assumed): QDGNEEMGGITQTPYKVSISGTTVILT
Procedure: CD3 binding affinity was evaluated using surface plasmon resonance. A CD3E fusion protein (CD3ε (aa 1-27)-chicken albumin) was immobilized on CM5 Sensor Chips in the presence of a sodium acetate buffer (pH 4.5). The DLL3 multichain TCE proteins described above diluted in HBS-EP buffer were applied at different concentrations to determine the molecule association rates with CD3ε. HBP-EP buffer alone was then added to allow analysis of the molecule dissociation rates.

[5] = molecular target: T2, cynomolgus monkey DLL3; test: flow cytometry, on-cell binding to CHO cells stably expressing cynomolgus monkey DLL3, anti-Fc detection
Procedure: as §1

EC50 [3]: 35 pM | Kd [4]: 7840 pM | EC50 [5]: 40 pM
B1: DLL3_2 hetero IgG (SEFL2)(YTE) (bispecific antibody)
heavy 1: not shown
light 1: DIVMTQTPLSLSVTPGQPASISCKSSQSLLHSDGKTFLYWYLQKPGQPPQLLIYEVSNRFSGVPDRFSGSGSGTDFTLKISRVEAEDVGVYYCLQGIHLPFTFGPGTKVEIKRTVAAPSVFIFPPSDEQLKSGTASVVCLLNNFYPREAKVQWKVDNALQSGNSQESVTEQDSKDSTYSLESTLTLSKADYEKHKVYACEVTHQGLSSPVTKSFNRGEC
heavy 2: EVQLVESGGGLVQPGGSLKLSCAASGFTFNKYAINWVRQAPGKGLEWVARIRSKYNNYATYYADAVKDRFTISRDDSKNTVYLQMNNLKTEDTAVYYCARAENIGTSYISYWAYWGQGTLVTVSSASTKGPSVFPLAPSSKSTSGGTAALGCLVKDYFPEPVTVSWNSGALTSGVHTFPAVLQSSGLYSLESVVTVPSSSLGTQTYICNVNHKPSNTKVDKKVEPKSCDKTHTCPPCPAPELLGGPSVFLFPPKPKDTLYITREPEVTCVVVDVSHEDPEVKFNWYVDGVEVHNAKTKPCEEQYGSTYRCVSVLTVLHQDWLNGKEYKCKVSNKALPAPIEKTISKAKGQPREPQVYTLPPSRKEMTKNQVSLTCLVKGFYPSDIAVEWESNGQPENNYKTTPPVLKSDGSFFLYSKLTVDKSRWQQGNVFSCSVMHEALHNHYTQKSLSLSPGK
light 2: not shown
T cell dependent cellular cytotoxicity (TDCC) EC50, CHO-huDLL3 [1]: 100 pM | T cell dependent cellular cytotoxicity (TDCC) EC50, CHO-cyno DLL3 [2]: 22.7 pM
